These results are taken from publication PMC8749442 (iScience, 2021).

For data set [1], the target named is GroEL (wild-type bacterial chaperonin) (UniProt P0A6F5 1-548). As to the kind of experiment: cryo-EM structure.
The data set “cryo-EM structure” deals with the molecule itself. The experiment in a line: cryo-EM structure.

Sequence of GroEL (wild-type bacterial chaperonin) (P0A6F5 whole entry): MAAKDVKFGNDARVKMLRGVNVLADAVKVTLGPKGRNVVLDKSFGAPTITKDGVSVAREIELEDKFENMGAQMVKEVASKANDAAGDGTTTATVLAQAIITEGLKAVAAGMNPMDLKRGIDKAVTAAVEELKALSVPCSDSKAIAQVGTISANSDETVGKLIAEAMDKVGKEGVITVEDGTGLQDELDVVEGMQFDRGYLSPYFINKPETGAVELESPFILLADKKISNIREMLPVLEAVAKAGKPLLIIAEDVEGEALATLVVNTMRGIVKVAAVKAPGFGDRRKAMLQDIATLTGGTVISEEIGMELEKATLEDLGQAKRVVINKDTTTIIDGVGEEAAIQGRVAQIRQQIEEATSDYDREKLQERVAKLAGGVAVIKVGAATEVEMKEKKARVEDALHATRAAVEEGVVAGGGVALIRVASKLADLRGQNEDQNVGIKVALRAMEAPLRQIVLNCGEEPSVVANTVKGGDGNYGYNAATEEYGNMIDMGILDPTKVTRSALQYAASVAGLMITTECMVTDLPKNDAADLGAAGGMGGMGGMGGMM

B1: GroES (co-chaperone of GroEL) (natural protein)
chain: MNIRPLHDRVIVKRKEVETKSAGGIVLTGSAAAKSTRGEVLAVGNGRILENGEVKPLDVKVGDIVIFNDGYGVKSEKIDNEEVLIMSESDILAIVEA
As to B1, the binding result (in data set [1]; in the data set “cryo-EM structure”) was “binds” each time.
